We go through five molecules from paper PMC11552376, “Specific binding between Arabidopsis thaliana phytochrome-interacting factor 3 (AtPIF3) bHLH and G-box originated prior to embryophyte emergence” (BMC Plant Biology, 2024).

In series [1] the target is AtPIF3-bHLH K362A mutant (Arabidopsis thaliana) (UniProt O80536). Description: SEC; Superdex75 size exclusion column, UV trace at 280 nm, compared with molecular weight standards (albumin, carbonic anhydrase, cytochrome c, vitamin B12); gel filtration buffer of the methods: 30 mM HEPES, 500 mM NaCl, pH 7.4; oligomeric state of the protein with itself. (In general: Size exclusion chromatography separates by hydrodynamic size, large species first.)

Series [2] addresses T1, AtPIF3-bHLH WT (Arabidopsis thaliana, UniProt O80536 340-397).
T1 sequence: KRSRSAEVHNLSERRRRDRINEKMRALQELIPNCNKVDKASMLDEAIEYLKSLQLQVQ
The experiment in a line: EMSA; DNA:protein 1:1 to 1:20; ITC: 30 mM HEPES, 125 mM NaCl, pH 7.5, 25 C, 400 uM protein into 40 uM DNA; fEMSA: 30 mM HEPES, 500 mM NaCl, pH 7.4, on ice 30 min, 3 uM probe, 10% native gel in 0.5x TBE at 4 C. The settings on record: protein: recombinant; tags: C-terminal His6; chain copies: 2; label: 5' fluorescein; blunt.

Series [3] concerns the molecule itself. Description: SEC; Superdex75 size exclusion column, UV trace at 280 nm, compared with molecular weight standards (albumin, carbonic anhydrase, cytochrome c, vitamin B12); gel filtration buffer of the methods: 30 mM HEPES, 500 mM NaCl, pH 7.4; oligomeric state of the protein with itself.
Series [4] deals with T1, AtPIF3-bHLH WT. The experiment in a line: ITC; ITC: 30 mM HEPES, 125 mM NaCl, pH 7.5, 25 C, 400 uM protein into 40 uM DNA; fEMSA: 30 mM HEPES, 500 mM NaCl, pH 7.4, on ice 30 min, 3 uM probe, 10% native gel in 0.5x TBE at 4 C. The conditions noted are these: protein: recombinant; tags: C-terminal His6; chain copies: 2; blunt. (In general: Isothermal titration calorimetry measures the heat released or taken up as one component is titrated into another.)

The stoichiometry N is a count of units in the complex or per binding partner. As usually defined, the Kd is the concentration at which binding is half-saturated.

For “AtPIF3-bHLH K362A mutant (from UniProt O80536 343-392) (domain or fragment)”, the stoichiometry N in series [1] came to 2.

B1: pPIL1 G-box (dsDNA)
DNA 1: GCATTCACGTGAAGT
DNA 2: ACTTCACGTGAATGC
As to B1, the binding result with AtPIF3-bHLH WT [2] is given as “binds”.

B2: Arabidopsis thaliana PIF3-bHLH (AtPIF3-bHLH) recombinant protein, wild type (domain or fragment, UniProt O80536 340-399, looked up)
chain: KRSRSAEVHNLSERRRRDRINEKMRALQELIPNCNKVDKASMLDEAIEYLKSLQLQVQIM
notes: Cloned between NheI and XhoI of pET21b; also called PIF3-bHLH–His6; WT; source: E. coli Rosetta (DE3), pET21b, purified (HisTrap FF, Superdex75 gel filtration); not shown: His6, C-terminal, kept
As to B2, the “stoichiometry N” value in series [3] was 2.

B3: AtPIF3-bHLH M399A mutant (domain or fragment, Arabidopsis thaliana, UniProt O80536 343-399, looked up)
chain: RSAEVHNLSERRRRDRINEKMRALQELIPNCNKVDKASMLDEAIEYLKSLQLQVQIA
notes: bHLH domain of PIF3 (AT1G09530), Arabidopsis thaliana, with M399A; Site-directed mutant of m1
For the molecule B3, the “stoichiometry N” value in series [3] worked out at 2.

B4: G-box (PER2), ITC (dsDNA)
DNA 1: AGGAACACGTGACCC
DNA 2: GGGTCACGTGTTCCT
For the molecule B4, the Kd in the series with AtPIF3-bHLH WT [4] amounted to 320 ± 14 nM.
